The sequences below were run on Escherichia coli TOP10 (assay: shrunken log2 fold change of peptide-encoding DNA abundance (4.5 h post-induction vs induction); higher = less antimicrobial activity (less host growth inhibition)). Conditions: time post-induction: 4.5 h; library: site-saturation at positions 5, 18, 19, 20.
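Note: peptides expressed intracellularly from a pBAD plasmid library in pooled LB shake-flask culture, induced with 0.3% L-arabinose, DNA abundance read by NGS, three biological replicates, DESeq2 with apeglm shrinkage.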

Sequence	shrunken log2 fold change
RRIRYRPPRLPRPRPRPETLPRP	-0.0879
RRIRMRPPRLPRPRPRPMWDPRP	0.128
RRIRERPPRLPRPRPRPTMKPRP	-0.0369
RRIRGRPPRLPRPRPRPINEPRP	0.0939
RRIRFRPPRLPRPRPRPATGPRP	1.21
RRIRNRPPRLPRPRPRPHKFPRP	-0.231
RRIRMRPPRLPRPRPRPKCTPRP	0.995
RRIRERPPRLPRPRPRPAEMPRP	-0.0352
RRIRSRPPRLPRPRPRPCNMPRP	-0.221
RRIRNRPPRLPRPRPRPDVWPRP	-0.0172
RRIRWRPPRLPRPRPRPEKHPRP	0.39
RRIRPRPPRLPRPRPRPWHDPRP	-0.112
RRIRCRPPRLPRPRPRPPPWPRP	1.06
RRIRVRPPRLPRPRPRPHMCPRP	-0.301
RRIRCRPPRLPRPRPRPGKWPRP	0.107
RRIRCRPPRLPRPRPRPPHDPRP	1.83
RRIRGRPPRLPRPRPRPATWPRP	0.565
RRIRYRPPRLPRPRPRPVDTPRP	-0.204
RRIRLRPPRLPRPRPRPHTDPRP	-0.223
RRIRFRPPRLPRPRPRPFPYPRP	-0.445
RRIRHRPPRLPRPRPRPADKPRP	-0.245
RRIRLRPPRLPRPRPRPCSKPRP	-0.0788
RRIRMRPPRLPRPRPRPAGKPRP	0.461
RRIRHRPPRLPRPRPRPNNHPRP	-0.915
RRIRLRPPRLPRPRPRPQLVPRP	0.144

Sequence	shrunken log2 fold change
RRIRLRPPRLPRPRPRPQLFPRP	0.131
RRIRLRPPRLPRPRPRPPCNPRP	-0.126
RRIRTRPPRLPRPRPRPNRVPRP	-0.0472
RRIRPRPPRLPRPRPRPIHNPRP	-0.569
RRIRKRPPRLPRPRPRPRTEPRP	1.04
RRIRIRPPRLPRPRPRPDLIPRP	-0.217
RRIRTRPPRLPRPRPRPDAPPRP	0.215
RRIRDRPPRLPRPRPRPIPHPRP	-0.051
RRIRIRPPRLPRPRPRPCVRPRP	-0.208
RRIRKRPPRLPRPRPRPRAAPRP	1.13
RRIRNRPPRLPRPRPRPNPNPRP	0.0656
RRIRPRPPRLPRPRPRPLEVPRP	-0.007
RRIRERPPRLPRPRPRPCVHPRP	-0.0795
RRIRGRPPRLPRPRPRPVDPPRP	0.107
RRIRIRPPRLPRPRPRPWLTPRP	-0.096
RRIRERPPRLPRPRPRPAFAPRP	0.206
RRIRIRPPRLPRPRPRPRNQPRP	-0.542
RRIRHRPPRLPRPRPRPPRRPRP	0.452
RRIRHRPPRLPRPRPRPWVVPRP	-0.48
RRIRSRPPRLPRPRPRPSYGPRP	-0.0636
RRIRWRPPRLPRPRPRPYHMPRP	-0.591
RRIRCRPPRLPRPRPRPGMQPRP	-0.255
RRIRARPPRLPRPRPRPRTDPRP	0.465
RRIRKRPPRLPRPRPRPFFMPRP	0.112
RRIRIRPPRLPRPRPRPDVVPRP	-0.0365

Sequence	shrunken log2 fold change
RRIRPRPPRLPRPRPRPWQNPRP	-0.136
RRIRARPPRLPRPRPRPQNNPRP	-0.29
RRIRARPPRLPRPRPRPQQIPRP	0.218
RRIRHRPPRLPRPRPRPGGMPRP	0.274
RRIRERPPRLPRPRPRPFWEPRP	-0.56
RRIRIRPPRLPRPRPRPVGEPRP	-0.0964
RRIRTRPPRLPRPRPRPCLPPRP	-0.0953
RRIRKRPPRLPRPRPRPRNYPRP	0.374
RRIRDRPPRLPRPRPRPKSGPRP	0.0754
RRIRFRPPRLPRPRPRPMKWPRP	-0.0607
RRIRWRPPRLPRPRPRPEVRPRP	0.495
RRIRKRPPRLPRPRPRPLQHPRP	0.657
RRIRVRPPRLPRPRPRPLNAPRP	-0.331
RRIRKRPPRLPRPRPRPTYIPRP	-0.154
RRIRYRPPRLPRPRPRPAKHPRP	-0.912
RRIRHRPPRLPRPRPRPHYWPRP	-0.588
RRIRNRPPRLPRPRPRPNHIPRP	-0.733
RRIRLRPPRLPRPRPRPHTLPRP	-0.224
RRIRNRPPRLPRPRPRPHIWPRP	-0.0306
RRIRGRPPRLPRPRPRPNFTPRP	0.298
RRIRTRPPRLPRPRPRPVRPPRP	0.779
RRIRFRPPRLPRPRPRPYRRPRP	-0.506
RRIRGRPPRLPRPRPRPGSPPRP	0.469
RRIRWRPPRLPRPRPRPEPNPRP	1.23
RRIRQRPPRLPRPRPRPSADPRP	0.354
